The values that follow are results of earlier work, collected in publication PMC7290751.

One series addresses Kv1.3 (Homo sapiens) (UniProt P22001).
The next series has as its target Kv1.2 (Homo sapiens) (UniProt P16389).
Sequence of UniProt P16389 (P16389 whole entry): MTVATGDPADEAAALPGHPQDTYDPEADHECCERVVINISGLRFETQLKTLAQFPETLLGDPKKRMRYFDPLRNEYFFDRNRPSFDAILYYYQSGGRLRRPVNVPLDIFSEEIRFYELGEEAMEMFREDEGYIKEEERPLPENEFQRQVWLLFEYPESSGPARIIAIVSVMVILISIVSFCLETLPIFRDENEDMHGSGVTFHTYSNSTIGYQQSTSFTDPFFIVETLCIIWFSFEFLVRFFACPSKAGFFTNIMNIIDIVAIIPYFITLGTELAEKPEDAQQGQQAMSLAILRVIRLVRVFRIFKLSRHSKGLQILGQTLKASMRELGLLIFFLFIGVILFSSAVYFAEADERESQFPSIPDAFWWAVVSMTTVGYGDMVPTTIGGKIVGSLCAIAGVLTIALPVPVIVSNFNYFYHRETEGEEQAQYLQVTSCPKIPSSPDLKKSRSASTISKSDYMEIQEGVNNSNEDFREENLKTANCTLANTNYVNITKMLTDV

Sequence of UniProt P22001 (P22001 whole entry): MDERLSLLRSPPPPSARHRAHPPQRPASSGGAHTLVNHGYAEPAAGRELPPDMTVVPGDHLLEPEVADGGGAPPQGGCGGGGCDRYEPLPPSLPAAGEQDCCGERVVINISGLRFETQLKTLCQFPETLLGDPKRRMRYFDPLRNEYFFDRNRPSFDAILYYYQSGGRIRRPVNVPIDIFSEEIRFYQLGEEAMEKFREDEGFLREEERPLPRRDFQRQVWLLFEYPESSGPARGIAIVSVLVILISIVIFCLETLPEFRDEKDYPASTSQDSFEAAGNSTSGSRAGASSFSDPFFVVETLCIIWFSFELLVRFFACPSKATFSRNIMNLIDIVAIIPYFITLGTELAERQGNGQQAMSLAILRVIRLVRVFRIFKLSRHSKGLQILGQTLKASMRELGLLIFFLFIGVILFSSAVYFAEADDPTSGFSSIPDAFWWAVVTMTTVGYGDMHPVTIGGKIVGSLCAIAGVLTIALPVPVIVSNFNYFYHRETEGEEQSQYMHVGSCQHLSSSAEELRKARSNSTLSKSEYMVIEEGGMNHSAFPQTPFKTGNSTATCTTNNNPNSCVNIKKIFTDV

For the substance margatoxin (MgTx) (from UniProt P40755), the Kd is 0.0117 nM in the series with Kv1.3 (Homo sapiens) and 6.4 pM with Kv1.2 (Homo sapiens).
